B1: mqsR-ygiT palindrome 1 (dsDNA)
DNA 1: CCCCTAACTAACCTTTTAGGTGCTTTTCCCC
DNA 2: GGGGAAAAGCACCTAAAAGGTTAGTTAGGGG
B2: mqsR-ygiT palindrome 2 (dsDNA)
DNA 1: CCCAATTAACCTTTTAGGTTATAACCC
DNA 2: GGGTTATAACCTAAAAGGTTAATTGGG

Columns and labels:
MqsR = MqsR (Escherichia coli, UniProt Q46865 SEQ:1-98); assay: EMSA; no binding up to 80 nM; conditions: chain copies: 2 inferred; label: 5'-32P
MqsR-YgiT complex [1] = target: T1, MqsR-YgiT complex (Escherichia coli, UniProt Q46865;Q46864 SEQ:1-98,SEQ:1-131); assay: EMSA; shift from 5 nM; stronger than YgiT alone; MqsR:YgiT 2:1; conditions: tags: N-terminal His on MqsR; chain copies: 4 MqsR + 2 YgiT inferred; label: 5'-32P
YgiT [2] = target: T2, YgiT (Escherichia coli, UniProt Q46864 SEQ:1-131); assay: EMSA; shift at 10 nM and higher, none at 5 nM; 50 mM Tris-HCl pH 7.2, 50 mM KCl, poly(dI-dC), 4 C; conditions: tags: C-terminal His; chain copies: 2 inferred; label: 5'-32P
MqsR-YgiT complex [3] = target: T1, MqsR-YgiT complex; assay: EMSA; shift from 10 nM; stronger than YgiT alone; MqsR:YgiT 2:1; conditions: tags: N-terminal His on MqsR; chain copies: 4 MqsR + 2 YgiT inferred; label: 5'-32P
YgiT [4] = target: T2, YgiT; assay: EMSA; shift at 20 nM and higher, none at 5 nM; 50 mM Tris-HCl pH 7.2, 50 mM KCl, poly(dI-dC), 4 C; conditions: tags: C-terminal His; chain copies: 2 inferred; label: 5'-32P

T2 sequence (Q46864 whole entry): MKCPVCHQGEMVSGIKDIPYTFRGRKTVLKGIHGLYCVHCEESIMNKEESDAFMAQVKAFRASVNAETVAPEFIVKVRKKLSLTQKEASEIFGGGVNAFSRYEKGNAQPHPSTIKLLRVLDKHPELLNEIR
Chain of MqsR (Q46865 whole entry): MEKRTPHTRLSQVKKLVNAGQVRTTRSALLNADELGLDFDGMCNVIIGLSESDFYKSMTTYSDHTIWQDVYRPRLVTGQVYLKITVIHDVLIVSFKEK
T1 sequence (Q46865 whole entry, chain 1 of 2): as the sequence (Q46865 whole entry) above
T1 sequence (Q46864 whole entry, chain 2 of 2): as the sequence (Q46864 whole entry) above

Row | Binder | binding result (MqsR) | binding result (MqsR-YgiT complex [1]) | binding result (YgiT [2]) | binding result (MqsR-YgiT complex [3]) | binding result (YgiT [4])
1 | B1 | no binding | binds | binds |  | 
2 | B2 | no binding |  |  | binds | binds

From US20110217282, “Novel Toxin-Antitoxin System” (UNIVERSITY OF MEDICINE AND DENTISTRY OF NEW JERSEY, published 2011)
